Experimental data from patent publication US20150210767A1 (GlaxoSmithKline, published 2015).

T1: human TNFR1 on human umbilical vein endothelial cells (HUVECs) (human, UniProt P19438 30-455)
T1 sequence (looked up): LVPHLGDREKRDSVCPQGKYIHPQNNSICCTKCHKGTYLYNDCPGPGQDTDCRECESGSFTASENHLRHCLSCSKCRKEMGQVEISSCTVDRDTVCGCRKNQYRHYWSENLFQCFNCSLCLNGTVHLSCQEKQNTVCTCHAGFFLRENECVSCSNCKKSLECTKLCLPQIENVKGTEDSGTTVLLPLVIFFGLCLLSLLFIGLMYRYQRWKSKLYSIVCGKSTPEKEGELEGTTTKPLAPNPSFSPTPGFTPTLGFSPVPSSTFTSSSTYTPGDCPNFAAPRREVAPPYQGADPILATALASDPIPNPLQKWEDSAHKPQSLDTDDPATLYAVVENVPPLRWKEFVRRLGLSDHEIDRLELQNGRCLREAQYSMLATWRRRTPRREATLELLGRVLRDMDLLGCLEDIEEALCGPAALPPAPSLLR

T2: biotinylated recombinant human soluble TNFR1 (human, UniProt P19438 30-211, biotinylated (EZ-Link Sulfo-NHS-LC-Biotin), sites not stated)
T2 construct: extracellular domain; Captured on a streptavidin BIAcore chip; also called human sTNFR1; sTNFR1
T2 sequence (looked up): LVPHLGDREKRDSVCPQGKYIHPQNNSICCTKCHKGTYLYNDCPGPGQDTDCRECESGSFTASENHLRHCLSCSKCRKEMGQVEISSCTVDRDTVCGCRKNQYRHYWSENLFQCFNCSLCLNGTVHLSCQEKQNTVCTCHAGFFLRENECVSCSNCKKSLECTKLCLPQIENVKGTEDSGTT


Tests used:
[1] = biological target: T1, human TNFR1 on human umbilical vein …; assay: cell-based or functional assay
[2] = biological target: T2, biotinylated recombinant human soluble …; assay: BIAcore (SPR), biotinylated human TNFR1 on streptavidin chip, fusion injected, mean of two experiments ± SD
Method: The affinity of the anti-TNFR1/AlbudAb fusions for human TNFR1 was determined by BIAcore. Briefly, the anti-TNFR1 molecules were injected over a streptavidin BIAcore chip on which biotinylated, human TNFR1 had been immobilised. Association and dissociation were determined at different concentrations of injected anti-TNFR1. […] The affinity for human TNFR1 as determined by BIAcore of the anti-TNFR1/AlbudAb fusion is slightly higher to that determined for the single anti-TNFR1 dAb used in each of the combination constructs.
The binding affinities for binding to recombinant human TNFR1 were assessed by BIAcore™ analysis. Analysis was carried out using Streptavidin coated (SA) chips (BIAcore, cat no. BR-1000-32). An SA chip was coated at low density using biotinylated hTNFR1. Examined molecules were injected over this surface at […] concentrations, i.e. 32, 16 (twice), 8, 4, 2, 1 and 0.5 nM, in random order using a flow rate of 50 μl/min. Between individual injections the surface was regenerated back to baseline using 10 mM glycine pH 2.0. Data were corrected for instrument artefacts using double referencing. Experiments were carried out on a BIAcore™ 3000 machine and data were analysed using the BIAevaluation software version 4.1, kₒₙ and koff were simultaneously fitted using 1:1 Langmuir binding model. For fitting purposes, the concentration range 1-32 nM was used for the monomers, while 0.5-16 nM was used for the AlbudAb fusion molecules. The binding data fitted well to the 1:1 model for all tested molecules. All KD values were calculated from kₒₙ and koff rates. BIAcore™ runs were carried out at 25° C.

[3] = biological target: T2, biotinylated recombinant human soluble …; assay: BIAcore (SPR), biotinylated human sTNFR1 on SA chip, dAb injected
Method: (§1) To confirm the increase in accelerated stability four novel dAbs were also characterised according to the more extensive protocol described in example 1. In this protocol, the dAbs are incubated up to 48 h at 40° C., centrifuged and the remaining dAb in solution quantified using OD₂₈₀. […] To verify that the increase in stability is not at the expense of functional anti-TNFR1 activity of the dAb, the binding affinity to TNFR1 of the dAbs was determined by BIAcore, using biotinylated TNFR1 captured on a BIAcore SA chip. […] Therefore, these dAbs combine an increase in accelerated stability without compromising much on the affinity of the dAb for TNFR1.
TABLE 7 Accelerated stability and affinity for human sTNFR1 for novel anti-TNFR1 dAbs. Purified dAb was incubated at 1 mg/ml in PBS at 40° C. for the indicated amounts of time. After that time, the percentage of residual protein in solution was determined by OD280 determination. Affinity for sTNFR1 was determined by BIAcore using coated sTNFR1 and injecting the dAb as described.

[4] = biological target: T2, biotinylated recombinant human soluble …; assay: BIAcore (SPR), biotinylated TNFR1 on SA chip; reference value of DOM1h-574-156 (150 pM) described previously
Method: as §1

| Binder | Mean EC50, inhibition of TNF-alpha-induced VCAM-1 expression in the HUVEC cell assay [1] | Kd [2] | Kd [3] | fold change of affinity against the parent dAb DOM1h-574-156 [4] |
| --- | --- | --- | --- | --- |
| DMS5544 (bispecific antibody, Single-chain genetic fusion of the anti-TNFR1 VH dAb DOM1h-574-188, linker AST and the anti-serum albumin Vk dAb DOM7h-11-3; also called DOM1h-574-188 - Ala-Ser-Thr - DOM7h-11-3; anti-TNFR1/AlbudAb fusion) EVQLLESGGGLVQPGGSLRLSCAASGFTFDKYSMGWVRQAPGKGLEWVSQISDTADRTYYAHSVKGRFTISRDNSKNTLYLQMNSLRAEDTAVYYCAIYTGRWVPFEYWGQGTLVTVSSASTDIQMTQSPSSLSASVGDRVTITCRASRPIGTTLSWYQQKPGKAPKLLILWNSRLQSGVPSRFSGSGSGTDFTLTISSLQPEDFATYYCAQAGTHPTTFGQGTKVEIKR | 4.83 nM | 0.18 nM | – | – |
| DMS5542 (bispecific antibody, Single-chain genetic fusion of the anti-TNFR1 VH dAb DOM1h-574-214, linker AST and the anti-serum albumin Vk dAb DOM7h-11-3; also called DOM1h-574-214 - Ala-Ser-Thr - DOM7h-11-3; anti-TNFR1/AlbudAb fusion) EVQLLESGGGLVQPGGSLRLSCAASGFTFSKYSMGWVRQAPGKGLEWVSQISDTADRTYYADSVKGRFTISRDNSKNTLYLQMNSLRAEDTAVYYCAIYTGRWVPFEYWGQGTLVTVSSASTDIQMTQSPSSLSASVGDRVTITCRASRPIGTTLSWYQQKPGKAPKLLILWNSRLQSGVPSRFSGSGSGTDFTLTISSLQPEDFATYYCAQAGTHPTTFGQGTKVEIKR | 6.23 nM | 0.202 nM | – | – |
| DMS5535 (bispecific antibody, Single-chain genetic fusion of the anti-TNFR1 VH dAb DOM1h-574-196, linker AST and the anti-serum albumin Vk dAb DOM7h-11-3; also called DOM1h-574-196 - Ala-Ser-Thr - DOM7h-11-3; anti-TNFR1/AlbudAb fusion) EVQLLESGGGLVQPGGSLRLSCAASGFTFSKYSMGWVRQAPGKGLEWVSQISDTADRTYYAHSVKGRFTISRDNSKNTLYLQMNSLRAEDTAVYYCAIYTGRWEPFEYWGQGTLVTVSSASTDIQMTQSPSSLSASVGDRVTITCRASRPIGTTLSWYQQKPGKAPKLLILWNSRLQSGVPSRFSGSGSGTDFTLTISSLQPEDFATYYCAQAGTHPTTFGQGTKVEIKR | 5.79 nM | 0.277 nM | – | – |
| DOM1h-574-188 (VHH, Human VH immunoglobulin single variable domain (dAb), not camelid; also called anti-TNFR1 dAb DOM1h-574-188) VHH: EVQLLESGGGLVQPGGSLRLSCAASGFTFDKYSMGWVRQAPGKGLEWVSQISDTADRTYYAHSVKGRFTISRDNSKNTLYLQMNSLRAEDTAVYYCAIYTGRWVPFEYWGQGTLVTVSS | – | – | 0.35 nM | ≤ 4 fold |

Results, then the binder that gave them:

| Mean EC50, inhibition of TNF-alpha-induced VCAM-1 expression in the HUVEC cell assay [1] | Kd [2] | Kd [3] | fold change of affinity against the parent dAb DOM1h-574-156 [4] | Binder |
| --- | --- | --- | --- | --- |
| – | – | 0.58 nM | ≤ 4 fold | DOM1h-574-214 (VHH, Human VH immunoglobulin single variable domain (dAb), not camelid; Monomer cloned in pDOM13 for expression in E. coli; also called anti-TNFR1 dAb DOM1h-574-214) VHH: EVQLLESGGGLVQPGGSLRLSCAASGFTFSKYSMGWVRQAPGKGLEWVSQISDTADRTYYADSVKGRFTISRDNSKNTLYLQMNSLRAEDTAVYYCAIYTGRWVPFEYWGQGTLVTVSS |
| – | – | 0.47 nM | ≤ 4 fold | DOM1h-574-196 (VHH, Human VH immunoglobulin single variable domain (dAb), not camelid; Monomer cloned in pDOM13 for expression in E. coli; also called anti-TNFR1 dAb DOM1h-574-196) VHH: EVQLLESGGGLVQPGGSLRLSCAASGFTFSKYSMGWVRQAPGKGLEWVSQISDTADRTYYAHSVKGRFTISRDNSKNTLYLQMNSLRAEDTAVYYCAIYTGRWEPFEYWGQGTLVTVSS |
